Data as given in patent US20170333517.

T1: N-acetyl-proline-glycine-proline
T1 chain: PGP


Target: T1, N-acetyl-proline-glycine-proline

Protein | degradation of Ac-PGP (residual Ac-PGP by ESI-LC-MS/MS after 24 h; 1 µg/ml enzyme, 100 µg/ml Ac-PGP)
recombinant human angiotensin converting enzyme (protein) LDPGLQPGNFSADEAGAQLFAQSYNSSAEQVLFQSVAASWAHDTNITAENARRQEEAALLSQEFAEAWGQKAKELYEPIWQNFTDPQLRRIIGAVRTLGSANLPLAKRQQYNALLSNMSRIYSTAKVCLPNKTATCWSLDPDLTNILASSRSYAMLLFAWEGWHNAAGIPLKPLYEDFTALSNEAYKQDGFTDTGAYWRSWYNSPTFEDDLEHLYQQLEPLYLNLHAFVRRALHRRYGDRYINLRGPIPAHLLGDMWAQSWENIYDMVVPFPDKPNLDVTSTMLQQGWNATHMFRVAEEFFTSLELSPMPPEFWEGSMLEKPADGREVVCHASAWDFYNRKDFRIKQCTRVTMDQLSTVHHEMGHIQYYLQYKDLPVSLRRGANPGFHEAIGDVLALSVSTPEHLHKIGLLDRVTNDTESDINYLLKMALEKIAFLPFGYLVDQWRWGVFSGRTPPSRYNFDWWYLRTKYQGICPPVTRNETHFDAGAKFHVPNVTPYIRYFVSFVLQFQFHEALCKEAGYEGPLHQCDIYRSTKAGAKLRKVLQAGSSRPWQEVLKDMVGLDALDAQPLLKYFQPVTQWLQEQNQQNGEVLGWPEYQWHPPLPDNYPEGIDLVTDEAEASKFVEEYDRTSQVVWNEYAEANWNYNTNITTETSKILLQKNMQIANHTLKYGTQARKFDVNQLQNTTIKRIIKKVQDLERAALPAQELEEYNKILLDMETTYSVATVCHPNGSCLQLEPDLTNVMATSRKYEDLLWAWEGWRDKAGRAILQFYPKYVELINQAARLNGYVDAGDSWRSMYETPSLEQDLERLFQELQPLYLNLHAYVRRALHRHYGAQHINLEGPIPAHLLGNMWAQTWSNIYDLVVPFPSAPSMDTTEAMLKQGWTPRRMFKEADDFFTSLGLLPVPPEFWNKSMLEKPTDGREVVCHASAWDFYNGKDFRIKQCTTVNLEDLVVAHHEMGHIQYFMQYKDLPVALREGANPGFHEAIGDVLALSVSTPKHLHSLNLLSSEGGSDEHDINFLMKMALDKIAFIPFSYLVDQWRWRVFDGSITKENYNQEWWSLRLKYQGLCPPVPRTQGDFDPGAKFHIPSSVPYIRYFVSFIIQFQFHEALCQAAGHTGPLHKCDIYQSKEAGQRLATAMKLGFSRPWPEAMQLITGQPNMSASAMLSYFKPLLDWLRTENELHGEKLGWPQYNWTPNSARSEGPLPDSGRVSFLGLDLDAQQARVGQWL | ACE degraded 70% of Ac-PGP
recombinant human aminopeptidase N (protein) KAWNRYRLPNTLKPDSYRVTLRPYLTPNDRGLYVFKGSSTVRFTCKEATDVIIIHSKKLNYTLSQGHRVVLRGVGGSQPPDIDKTELVEPTEYLVVHLKGSLVKDSQYEMDSEFEGELADDLAGFYRSEYMEGNVRKVVATTQMQAADARKSFPCFDEPAMKAEFNITLIHPKDLTALSNMLPKGPSTPLPEDPNWNVTEFHTTPKMSTYLLAFIVSEFDYVEKQASNGVLIRIWARPSAIAAGHGDYALNVTGPILNFFAGHYDTPYPLPKSDQIGLPDFNAGAMENWGLVTYRENSLLFDPLSSSSSNKERVVTVIAHELAHQWFGNLVTIEWWNDLWLNEGFASYVEYLGADYAEPTWNLKDLMVLNDVYRVMAVDALASSHPLSTPASEINTPAQISELFDAISYSKGASVLRMLSSFLSEDVFKQGLASYLHTFAYQNTIYLNLWDHLQEAVNNRSIQLPTTVRDIMNRWTLQMGFPVITVDTSTGTLSQEHFLLDPDSNVTRPSEFNYVWIVPITSIRDGRQQQDYWLIDVRAQNDLFSTSGNEWVLLNLNVTGYYRVNYDEENWRKIQTQLQRDHSAIPVINRAQIINDAFNLASAHKVPVTLALNNTLFLIEERQYMPWEAALSSLSYFKLMFDRSEVYGPMKNYLKKQVTPLFIHFRNNTNNWREIPENLMDQYSEVNAISTACSNGVPECEEMVSGLFKQWMENPNNNPIHPNLRSTVYCNAIAQGGEEEWDFAWEQFRNATLVNEADKLRAALACSKELWILNRYLSYTLNPDLIRKQDATSTIISITNNVIGQGLVWDFVQSNWKKLFNDYGGGSFSFSNLIQAVTRRFSTEYELQQLEQFKKDNEETGFGSGTRALEQALEKTKANIKWVKENKEVVLQWFTENSK | APN had no activity
